Laboratory results: patent US20140329787A1, “PHYTOPHTHORA PHOSPHOLIPASE C” (Deakin University, priority 2011, published 2014)
Entries after “also recorded” stand apart in the source; their conditions may differ.

Tests used:
[1] = system: Phytophthora cinnamomi; format: cell-based
[2] = system: P. cinnamomi; assay: Hyphal growth rate; format: cell-based, Phytophthora cinnamomi; conditions: data not shown
[3] = system: P. sojae; assay: Hyphal growth rate; format: cell-based, Phytophthora sojae; conditions: data not shown
[4] = IP3 production from bovine brain phosphatidylinositols, ESI-MS; format: biochemical; conditions: CaCl2 or EDTA; three protein batches
Procedure: All mass spectra were produced using a 6210 MSDTOF mass spectrometer (Agilent Technologies, Australia) with the following conditions: drying gas, nitrogen ([…], 350° C.); nebulizer gas, nitrogen (16 psi); capillary voltage, ±4.0 kV; vaporizer temperature, 350° C.; and cone voltage, 60V, 5 μL.
To test for phospholipase C-like function of Alt-PLC, electrospray ionization mass spectrometry (ESI-MS) was utilized to identify of inositol(1,4,5)triphosphate (IP3) produced from reactions of Alt-PLC with lipids.
Three separate batches of protein (purified from independent transformations) were prepared and reacted with a mixture of phosphatidylinositols from bovine brain in the presence of CaCl2 or in the presence of EDTA. Chloroform phase-extraction was performed and the aqueous phase analysed for the presence of IP3 by ESI-MS.

[5] = In-solution hydrolysis of diC8-PI(4,5)P2, products by ESI-MS, TLC and NMR; format: biochemical; conditions: with calcium, 60 min
Procedure: Five milligrams of lyophilised, synthetic 1,2-dioctanol-D-myo-phosphatidylinositol(4,5)bisphosphate (diC8-PI(4,5)P2: Echelon Biosciences, USA) was resuspended in 500 μl of 20 mM tris pH:8.0; to this, 100 μl of 1M CaCl2 and 400 μl of refolded Alt-PLC (0.1 mg/ml) in buffer A4 were added and the reaction allowed to proceed for 60 min. The reaction was stopped by phase separation with the addition of 3.75 ml of chloroform:methanol:12N HCl (2:4:0.1) and mixed thoroughly before the addition of 1.25 ml of chloroform. The solution was then vortexed for 30 sec before addition of 1.25 ml of ddH2O and then further vortexed for 30 seconds. The sample was then centrifuged at 1000 rpm for 10 min in a swinging bucket rotor at 4° C. The upper aqueous layer (containing inositols) and the lower chloroform layer (containing all lipids and phospholipids) were separately lyophilised in glass tubes and stored at −80° C. for further analysis. Further separation of polar and non-polar lipids, developed by the hydrolysis reaction, was performed by resuspending the lyophilised, chloroform layer in 1 mil 75% methanol and then adding 1 ml of n-hexane. […]
The unusual nature of this double hydrolysis led the Applicant to perform NMR on the MAG and acyl arg fractions as an additional confirmation of the ESI-MS results. […] NMR spectra were recorded at 400 MHz at −55° C. […]

[6] = Hydrolysis of PIPx, neutral-lipid TLC; format: biochemical; conditions: 0.2 mg/ml enzyme; listed as Alt-PLC1
Procedure: Lipid samples of 0.5 μl were applied to silica 60 TLC plates and allowed to dry prior to the addition of more sample. Neutral lipids were applied to 10×20 cm pre-absorption zone-bearing silica-60 plates (Sigma-Aldrich, USA) and resolved in a solvent mixture of hexane:diethyl ether:acetic acid (9:1:0.5). Phospholipids were resolved on 20×20 cm silica-60 plates (Merck, Australia), without a pre-absorption zone, in a solvent mixture of chloroform:methanol:acetic acid:water (90:40:12:2). Lipids were detected by spraying the dried TLC plates with a solution of 0.05% rhodamine B (Sigma) in methanol and destaining was performed by repeated spraying with 5 M KOH. Lipid spots were then visualised following UV excitation at 312 nm.
Alt-PLC and Alt-PLC2 were refolded into buffer A4 at a concentration of 0.2 mg/ml and a hydrolysis reaction was performed using PIPx (mixed phosphatidylinositols, Sigma) as the substrate. The reaction was performed as described previously and the resultant neutral lipids were extracted by diethyl ether phase extraction. The samples were analysed by neutral-lipid thin-layer chromatography, on silica 60 plates with a pre-absorption zone; the mobile phase employed was hexane: diethyl ether: acetic acid (9:1:0.5).

[7] = system: E. coli; assay: Growth curves of E. coli expressing Alt-PLC and truncations; format: cell-based; conditions: relative to E. coli not expressing Alt-PLC
Procedure: An analysis of function of the Alt-PLC truncations was performed using growth curves of Alt-PLC expressing E. coli cells (FIG. 28).
Therefore, growth curves of E. coli expressing Alt-PLC and the truncations allow determination of Alt-PLC function in vivo.

Molecule	PIP2 level and distribution in hyphae [1]	hyphal growth rate [2]	hyphal growth rate [3]	IP3 production (m/z 160.6) [4]	products of hydrolysis [5]	monoacylglycerol production / phospholipase C activity level in vitro [6]	growth of expressing E. coli (function in vivo) [7]
COc1ccc2c(c1)CC[C@@H]1[C@@H]2CC[C@]2(C)[C@@H](NCCCCCCN3C(=O)C=CC3=O)CC[C@@H]12 [U-73122]	PIP2 increased; also recorded: PIP2 showed an almost uniform membrane distribution, indicating uncontrolled accumulation	markedly reduces hyphal growth rate	markedly reduces hyphal growth rate	–	–	–	–
Alt-PLC: Phytophthora sojae alternative phospholipase C, SEQ ID NO: 5; codon optimised, his-tagged, expressed in E. coli (protein, listed as Phytophthora sojae, His tag, codon optimised, his-tagged, expressed in E. coli) MASGWRQKPRLDPWDPPSPPPLLEEAAPKPKPKTSRFSRRSTRAKSHARQQAQHVELEVEEHAEQRDRDKRRSLLASMFGERAQSRASRSSSDASALQSQTQTLVQREKAFRLVRHGSDPLLNDAFYATQVQVGNFVKMGWLTKQGHMWKSWKTRFFVLFSDGTFAYYKNKGRKKIKGCMQLNDGVVSVQHVDIRLADKAYVFQIEKGFYKLLCYCCSQFEAELWVAALRSVRRVAPPCYEMDLTATEEKAGSNAVTRHLNKIFITDKQIAKRLAEFKANTHDHSYAAIHNFIVELDDAIIDRHHLEFYQDAEIELLPGNELVRLIRRHVEDRVFIPLYAEAYASLETDKVKTRRSNLEQHLKVLKQKTQADFGISKDLSVCNWKQAISVVNMLDCVSLPTHKFEVILSAGKAIMELIAQYNGELFEVSDEMLTAIFRYVVTMSSLSDLPTLRALLKYGYQHHPASQNKANVVTAFLNAIKWVECFEAGDESYQFDSLALAGSRVSVSISTNDVGIQFTTDGNGRGAIVYNIRKQSQAALSAAIVPGLSLIAINHEPVIALEFAVKIDYSHRIEVDKSASYLGSQMPNSSWKMVDKDDHVSRSARPGSVDDLIRELVAGTEVDLVDVVSFVLFLDSFSSLNEVVDRLSAHVRNGVKSHGLIRLFIVVLLFRQSETKEADDLRDRFYSLISLNIDAKDKLVPLVEEYMSLYKEYFSLRGAGNYAVNYQAIPGMMSKVYGMESGFEPVSSGPFSAHLHRFVDAERWAEQCTLLTHAVFCKIPVRDFIPTGSKKKHSVEFTSIKRWFQHISAFVINAVLVQNTPEERAEVISFYLKLSLDAKKMMNEMQLLSDKGCREMNRLMRKTANPSMPYIGLYLQGFVGLNELPAFDKEGLVNANRLRRMGELAMEILHRQSVAYTLQHDEDVNKLLHVSLPYSSEESRYARSLELEPREADAIPLSDRGSYTLIDDDVDLENEVRESIGGDGTFGFRQWIRKQQVVHRNRSRSSVIALYEWV	–	–	–	IP3 was produced in the Ca^2+-activated reactions, but was not produced in the presence of EDTA	1-monacylglycerol, a free fatty acid (FFA) and inositol(1,4,5)triphosphate	detection of monoacylglycerol production; also recorded: higher activity level in vitro than Alt-PLC2	characteristic reduced growth of the bacteria
